The sequences below were run on Escherichia coli TOP10 (assay: shrunken log2 fold change of peptide-encoding DNA abundance (4.5 h post-induction vs induction); higher = less antimicrobial activity (less host growth inhibition)). Conditions: time post-induction: 4.5 h; library: site-saturation at positions 5, 18, 19, 20.
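Also: peptides expressed intracellularly from a pBAD plasmid library in pooled LB shake-flask culture, induced with 0.3% L-arabinose, DNA abundance read by NGS, three biological replicates, DESeq2 with apeglm shrinkage.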

Going from RRIRKRPPRLPRPRPRPMGTPRP to RRIRWRPPRLPRPRPRPEQEPRP, the “shrunken log2 fold change” value falls from 0.335 to 0.0529.

Compared with RRIRRRPPRLPRPRPRPQQKPRP, RRIRDRPPRLPRPRPRPDFDPRP is higher in “shrunken log2 fold change” value: 0.011 for the first, 0.541 for the second.

Compared with RRIRGRPPRLPRPRPRPDPPPRP, RRIRDRPPRLPRPRPRPCAAPRP is lower in “shrunken log2 fold change” value: 1.14 for the first, 0.704 for the second.

Going from RRIRFRPPRLPRPRPRPFVGPRP to RRIRERPPRLPRPRPRPQIHPRP, the “shrunken log2 fold change” value falls from -0.0219 to -0.835.

Compared with RRIRERPPRLPRPRPRPTYNPRP, RRIRNRPPRLPRPRPRPFLHPRP is higher in “shrunken log2 fold change” value: -0.908 for the first, -0.351 for the second.

First: RRIRPRPPRLPRPRPRPYIQPRP
Second: RRIRERPPRLPRPRPRPYTQPRP
The “shrunken log2 fold change” value of the first is lower: -0.375 for the first, -0.0502 for the second.

Going from RRIRMRPPRLPRPRPRPLHTPRP to RRIRKRPPRLPRPRPRPLNGPRP, the “shrunken log2 fold change” value falls from 2.66 to 0.0417.

RRIRNRPPRLPRPRPRPLHGPRP and RRIRWRPPRLPRPRPRPAIMPRP are within 0.2 log units of each other in “shrunken log2 fold change” value: -0.0305 for the first, -0.211 for the second.

First: RRIRNRPPRLPRPRPRPHLNPRP
Second: RRIRCRPPRLPRPRPRPHYTPRP
The “shrunken log2 fold change” value of the first is lower: -0.599 for the first, -0.311 for the second.

Compared with RRIRGRPPRLPRPRPRPFNSPRP, RRIRRRPPRLPRPRPRPRIQPRP is higher in “shrunken log2 fold change” value: 0.0167 for the first, 0.241 for the second.

Compared with RRIRGRPPRLPRPRPRPVDCPRP, RRIRKRPPRLPRPRPRPSFSPRP is lower in “shrunken log2 fold change” value: 0.496 for the first, -0.0191 for the second.

Compared with RRIRYRPPRLPRPRPRPNTQPRP, RRIRHRPPRLPRPRPRPYYYPRP is lower in “shrunken log2 fold change” value: -0.17 for the first, -1.31 for the second.

Going from RRIRLRPPRLPRPRPRPEHVPRP to RRIRLRPPRLPRPRPRPYRHPRP, the “shrunken log2 fold change” value falls from -0.0237 to -0.628.

Compared with RRIRDRPPRLPRPRPRPKEGPRP, RRIRSRPPRLPRPRPRPDSTPRP is lower in “shrunken log2 fold change” value: 0.32 for the first, -0.481 for the second.

RRIRIRPPRLPRPRPRPCPWPRP and RRIRNRPPRLPRPRPRPFVEPRP are within 0.2 log units of each other in “shrunken log2 fold change” value: -0.161 for the first, -0.12 for the second.

RRIRCRPPRLPRPRPRPQNAPRP and RRIRFRPPRLPRPRPRPWYFPRP are within 0.2 log units of each other in “shrunken log2 fold change” value: -0.372 for the first, -0.303 for the second.

Compared with RRIRRRPPRLPRPRPRPRNWPRP, RRIRQRPPRLPRPRPRPHWNPRP is lower in “shrunken log2 fold change” value: 0.319 for the first, -0.703 for the second.

Going from RRIRSRPPRLPRPRPRPTNPPRP to RRIRHRPPRLPRPRPRPMPAPRP, the “shrunken log2 fold change” value rises from -0.0555 to 0.337.

RRIRCRPPRLPRPRPRPVCEPRP and RRIRKRPPRLPRPRPRPTFCPRP are within 0.2 log units of each other in “shrunken log2 fold change” value: 0.0301 for the first, 0.193 for the second.

First: RRIRSRPPRLPRPRPRPFMQPRP
Second: RRIRFRPPRLPRPRPRPGAYPRP
The “shrunken log2 fold change” value of the first is lower: -0.638 for the first, 0.116 for the second.

RRIRNRPPRLPRPRPRPNEMPRP and RRIRRRPPRLPRPRPRPTNQPRP are within 0.2 log units of each other in “shrunken log2 fold change” value: -0.00174 for the first, 0.111 for the second.

RRIRWRPPRLPRPRPRPPSYPRP and RRIRHRPPRLPRPRPRPNCAPRP are within 0.2 log units of each other in “shrunken log2 fold change” value: -0.116 for the first, 0.0721 for the second.

RRIRNRPPRLPRPRPRPAKYPRP and RRIRMRPPRLPRPRPRPTSIPRP are within 0.2 log units of each other in “shrunken log2 fold change” value: -0.134 for the first, -0.0517 for the second.

RRIRGRPPRLPRPRPRPISMPRP and RRIRYRPPRLPRPRPRPWQTPRP are within 0.2 log units of each other in “shrunken log2 fold change” value: -0.0173 for the first, -0.0202 for the second.

Compared with RRIRIRPPRLPRPRPRPSDSPRP, RRIRPRPPRLPRPRPRPDAEPRP is higher in “shrunken log2 fold change” value: -0.0385 for the first, 0.496 for the second.

RRIRARPPRLPRPRPRPMSYPRP and RRIRDRPPRLPRPRPRPESKPRP are within 0.2 log units of each other in “shrunken log2 fold change” value: 0.163 for the first, 0.0201 for the second.

First: RRIRRRPPRLPRPRPRPAMPPRP
Second: RRIRIRPPRLPRPRPRPSQRPRP
The “shrunken log2 fold change” value of the first is higher: 0.396 for the first, -0.466 for the second.

RRIRQRPPRLPRPRPRPMKWPRP and RRIRCRPPRLPRPRPRPASSPRP are within 0.2 log units of each other in “shrunken log2 fold change” value: 0.273 for the first, 0.124 for the second.

Compared with RRIRTRPPRLPRPRPRPYVNPRP, RRIRTRPPRLPRPRPRPIATPRP is higher in “shrunken log2 fold change” value: -0.189 for the first, 0.227 for the second.

Compared with RRIRSRPPRLPRPRPRPTNIPRP, RRIRFRPPRLPRPRPRPNAQPRP is higher in “shrunken log2 fold change” value: -0.434 for the first, 0.0328 for the second.

RRIRDRPPRLPRPRPRPNQFPRP and RRIRSRPPRLPRPRPRPKYVPRP are within 0.2 log units of each other in “shrunken log2 fold change” value: -0.416 for the first, -0.527 for the second.

Going from RRIRDRPPRLPRPRPRPNTTPRP to RRIRLRPPRLPRPRPRPQHHPRP, the “shrunken log2 fold change” value falls from -0.0542 to -0.54.

First: RRIRRRPPRLPRPRPRPYSMPRP
Second: RRIRQRPPRLPRPRPRPWSGPRP
The “shrunken log2 fold change” value of the first is lower: -1.39 for the first, 0.082 for the second.

RRIRERPPRLPRPRPRPPYFPRP and RRIRPRPPRLPRPRPRPNMHPRP are within 0.2 log units of each other in “shrunken log2 fold change” value: -0.441 for the first, -0.329 for the second.

RRIRFRPPRLPRPRPRPHEIPRP and RRIRKRPPRLPRPRPRPSKYPRP are within 0.2 log units of each other in “shrunken log2 fold change” value: -0.0536 for the first, -0.00772 for the second.

Compared with RRIRKRPPRLPRPRPRPESSPRP, RRIRIRPPRLPRPRPRPQENPRP is lower in “shrunken log2 fold change” value: -0.000321 for the first, -0.494 for the second.

RRIRKRPPRLPRPRPRPIWDPRP and RRIRDRPPRLPRPRPRPMKAPRP are within 0.2 log units of each other in “shrunken log2 fold change” value: -0.0152 for the first, 0.0349 for the second.

Compared with RRIRYRPPRLPRPRPRPVMRPRP, RRIRNRPPRLPRPRPRPNQFPRP is lower in “shrunken log2 fold change” value: 0.0461 for the first, -0.376 for the second.

First: RRIRCRPPRLPRPRPRPAGTPRP
Second: RRIRHRPPRLPRPRPRPMSPPRP
The “shrunken log2 fold change” value of the first is lower: -0.202 for the first, 0.0565 for the second.

RRIRTRPPRLPRPRPRPLARPRP and RRIRARPPRLPRPRPRPGESPRP are within 0.2 log units of each other in “shrunken log2 fold change” value: -0.0885 for the first, 0.014 for the second.

Going from RRIRDRPPRLPRPRPRPEPPPRP to RRIRLRPPRLPRPRPRPYWYPRP, the “shrunken log2 fold change” value falls from 1.06 to -0.542.

Going from RRIRPRPPRLPRPRPRPYYQPRP to RRIRNRPPRLPRPRPRPTVKPRP, the “shrunken log2 fold change” value rises from -0.496 to -0.00906.

Compared with RRIRNRPPRLPRPRPRPLMRPRP, RRIRMRPPRLPRPRPRPYMAPRP is lower in “shrunken log2 fold change” value: 0.627 for the first, -0.162 for the second.

RRIRDRPPRLPRPRPRPWGDPRP and RRIRSRPPRLPRPRPRPVQKPRP are within 0.2 log units of each other in “shrunken log2 fold change” value: 0.13 for the first, 0.178 for the second.

RRIRHRPPRLPRPRPRPPWYPRP and RRIRERPPRLPRPRPRPSYTPRP are within 0.2 log units of each other in “shrunken log2 fold change” value: -0.232 for the first, -0.181 for the second.

Compared with RRIRCRPPRLPRPRPRPRIPPRP, RRIRLRPPRLPRPRPRPPHGPRP is higher in “shrunken log2 fold change” value: -0.00295 for the first, 0.223 for the second.

RRIRCRPPRLPRPRPRPEEFPRP and RRIRCRPPRLPRPRPRPQALPRP are within 0.2 log units of each other in “shrunken log2 fold change” value: 0.0238 for the first, 0.0319 for the second.

RRIRDRPPRLPRPRPRPPTLPRP and RRIRLRPPRLPRPRPRPGANPRP are within 0.2 log units of each other in “shrunken log2 fold change” value: -0.0573 for the first, -0.146 for the second.

RRIRPRPPRLPRPRPRPDYQPRP and RRIRRRPPRLPRPRPRPHKYPRP are within 0.2 log units of each other in “shrunken log2 fold change” value: -0.211 for the first, -0.192 for the second.

Going from RRIRLRPPRLPRPRPRPSEHPRP to RRIRARPPRLPRPRPRPYKKPRP, the “shrunken log2 fold change” value rises from -0.453 to -0.0244.

Compared with RRIRPRPPRLPRPRPRPGCMPRP, RRIRARPPRLPRPRPRPQPAPRP is higher in “shrunken log2 fold change” value: 0.179 for the first, 0.679 for the second.

Going from RRIRTRPPRLPRPRPRPIRHPRP to RRIRCRPPRLPRPRPRPLMGPRP, the “shrunken log2 fold change” value rises from -0.438 to -0.214.

RRIRDRPPRLPRPRPRPGHQPRP and RRIRYRPPRLPRPRPRPFVSPRP are within 0.2 log units of each other in “shrunken log2 fold change” value: 0.137 for the first, 0.00884 for the second.

Compared with RRIRCRPPRLPRPRPRPNYGPRP, RRIRPRPPRLPRPRPRPNINPRP is lower in “shrunken log2 fold change” value: -0.297 for the first, -0.795 for the second.

RRIRYRPPRLPRPRPRPNCIPRP and RRIRLRPPRLPRPRPRPHCCPRP are within 0.2 log units of each other in “shrunken log2 fold change” value: -0.197 for the first, -0.376 for the second.

Going from RRIRRRPPRLPRPRPRPESYPRP to RRIRGRPPRLPRPRPRPEMQPRP, the “shrunken log2 fold change” value rises from 0.0503 to 1.41.

First: RRIRCRPPRLPRPRPRPTFHPRP
Second: RRIRARPPRLPRPRPRPNWFPRP
The “shrunken log2 fold change” value of the first is lower: -0.366 for the first, 0.0236 for the second.

Going from RRIRHRPPRLPRPRPRPLCTPRP to RRIRFRPPRLPRPRPRPEGNPRP, the “shrunken log2 fold change” value rises from -0.247 to -0.0429.

RRIRDRPPRLPRPRPRPIWYPRP and RRIRIRPPRLPRPRPRPRFEPRP are within 0.2 log units of each other in “shrunken log2 fold change” value: -0.0481 for the first, 0.131 for the second.

First: RRIRVRPPRLPRPRPRPSPCPRP
Second: RRIRSRPPRLPRPRPRPVAAPRP
The “shrunken log2 fold change” value of the first is lower: -0.145 for the first, 0.432 for the second.

Going from RRIRARPPRLPRPRPRPRDYPRP to RRIRDRPPRLPRPRPRPCHKPRP, the “shrunken log2 fold change” value falls from 0.204 to -0.00188.

RRIRSRPPRLPRPRPRPWNYPRP and RRIRNRPPRLPRPRPRPAHSPRP are within 0.2 log units of each other in “shrunken log2 fold change” value: 0.0149 for the first, 0.111 for the second.

RRIRRRPPRLPRPRPRPFYKPRP was tested, and the “shrunken log2 fold change” value was -0.173.

Source: the supplement of paper PMC9112550, “Optimization of the antimicrobial peptide Bac7 by deep mutational scanning” (BMC Biology, 2022)
